Assay results taken from patent US20230144436A1, “MUSCLE TARGETING COMPLEXES AND USES THEREOF FOR TREATING MYOTONIC DYSTROPHY” (Dyne Therapeutics, Inc., priority 2020, published 2023).

Experiments:
[1] = target: hTfR1 (Homo sapiens, UniProt P02786); experiment: Binding kinetics of anti-TfR1 antibodies on Carterra LSA, hTfR1; details: Carterra LSA at 25 C
Method: Selected anti-TfR1 antibodies were tested for their binding affinity to human TfR1 for measurement of Ka (association rate constant), Kd (dissociation rate constant), and KD (affinity). […] The binding experiment was performed on Carterra LSA at 25 C. An anti-mouse IgG and anti-human IgG antibody “lawn” was prepared on a HC30M chip by amine coupling. 59 IgGs (58 mouse mAbs and 1 human mAb) were captured on the chip. Dilution series of hTfR1, cyTfR1, and hTfR2 were injected to the chip for binding (starting from 1000 nM, 1:3 dilution, 8 concentrations).
Binding data were referenced by subtracting the responses from a buffer analyte injection and globally fitting to a 1:1 Langmuir binding model for estimate of Ka (association rate constant), Kd (dissociation rate constant), and KD (affinity) using the Carterra™ Kinetics software. 5-6 concentrations were used for curve fitting.

[2] = tested on: DMPK; experiment: DMPK knockdown by anti-TfR1 antibody-oligonucleotide conjugates in NHP myotubes; type: cell-based, non-human primate; details: conjugate with control DMPK-ASO, 72 hours, concentration not stated (0.5, 5, 50 nM tested)
Method: (§1) The purified complexes were then tested for cellular internalization and inhibition of the target gene, DMPK. Non-human primate (NHP) or DM1 (donated by DM1 patients) cells were grown in 96-well plates and differentiated into myotubes for 7 days. Cells were then treated with escalating concentrations (0.5 nM, 5 nM, 50 nM) of each complex for 72 hours. Cells were harvested, RNA was isolated, and reverse transcription was performed to generate cDNA. qPCR was performed using TaqMan kits specific for Ppib (control) and DMPK on the QuantStudio 7. The relative amounts of remaining DMPK transcript in treated vs non-treated cells was were calculated and the results are shown in Table 14 and FIG. 20.
as §1, with “of” for “of the target gene,”, “in” for “in Table 14 and”, “23.” for “20.”

[3] = tested on: DMPK; experiment: DMPK knockdown by anti-TfR1 antibody-oligonucleotide conjugates in DM1 patient myotubes; type: cell-based, human; details: for % knockdown of DMPK in cells from human DM1 patients using Antibody-DMPK ASO conjugate: DM1 patient myotubes, conjugate with control DMPK-ASO, 72 hours, concentration not stated (0.5, 5, 50 nM tested)
Method: as §1
as §1, with “of” for “of the target gene,”, “in” for “in Table 14 and”, “23.” for “20.”

Chain of hTfR1 (P02786 whole entry): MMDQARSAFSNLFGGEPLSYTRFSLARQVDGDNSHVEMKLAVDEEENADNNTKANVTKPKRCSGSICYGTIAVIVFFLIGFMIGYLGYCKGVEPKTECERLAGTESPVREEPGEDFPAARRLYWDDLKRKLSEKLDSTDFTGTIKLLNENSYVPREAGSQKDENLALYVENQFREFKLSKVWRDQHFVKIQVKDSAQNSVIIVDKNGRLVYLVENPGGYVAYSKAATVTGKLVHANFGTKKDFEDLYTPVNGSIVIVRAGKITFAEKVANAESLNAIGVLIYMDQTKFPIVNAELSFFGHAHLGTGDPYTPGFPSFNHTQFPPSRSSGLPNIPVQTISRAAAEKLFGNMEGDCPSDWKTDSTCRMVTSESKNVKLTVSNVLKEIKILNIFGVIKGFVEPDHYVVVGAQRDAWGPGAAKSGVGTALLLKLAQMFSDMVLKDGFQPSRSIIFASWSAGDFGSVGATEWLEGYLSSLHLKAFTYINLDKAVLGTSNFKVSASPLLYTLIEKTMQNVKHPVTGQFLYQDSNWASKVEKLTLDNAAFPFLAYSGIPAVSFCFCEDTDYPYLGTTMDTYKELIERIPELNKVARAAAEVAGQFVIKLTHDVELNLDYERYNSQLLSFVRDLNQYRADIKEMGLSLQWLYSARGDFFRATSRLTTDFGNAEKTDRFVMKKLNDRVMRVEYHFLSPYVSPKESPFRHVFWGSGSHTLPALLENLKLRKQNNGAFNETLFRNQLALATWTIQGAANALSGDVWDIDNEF

| Molecule | dissociation rate constant (koff) [1] [µM] | % knockdown of DMPK in NHP cells using Antibody-DMPK ASO conjugate [2] [%] | % knockdown of DMPK in cells from human DM1 patients using Antibody-DMPK ASO conjugate [3] [%] | activity in delivering a payload (DMPK ASO) and achieving DMPK knockdown compared to the control antibody 15G11 ([3]; conjugates with control DMPK-ASO, in either cyno cells or human DM1 patient cells) |
| --- | --- | --- | --- | --- |
| 3-M12 (antibody, V domains shown) VH: DVQLQESGPGLVKPSQSLSLTCSVTGYSITSGYYWNWIRQFPGNKLEWMGYITFDGANNYNPSLKNRISITRDTSKNQFFLKLTSVTTEDTATYYCTRSSYDYDVLDYWGQGTTLTVSS VL: DIQMTQTTSSLSASLGDRVTISCRASQDISNFLNWYQQRPDGTVKLLIYYTSRLHSGVPSRFSGSGSGTDFSLTVSNLEQEDIATYFCQQGHTLPYTFGGGTKLEIK | 127 | 77 | 52 | superior activity |
| 9-K23 (antibody, V domains shown) VH: QVTLKESGPGMLQPSQTLSLTCSFSGFSLNTYDVGVGWIRQPSGKGLEWLANIWWNDDKYYNSALKSRLTISKDTSNNQVFLKISSVDTADTATYYCTLYSYDGGFAYWGQGTLVTVSA VL: QIVLTQSPAIMSASLGERVTMTCTASSSVSSSYLHWYQQKPGSSPKLWIYSTSNLASGVPARFSGSGSGTSYSLTISSMEAEDAATYYCHQYHRSPYTFGGGTKLEIK | 21.7 | 47 | −4 |  |
| 2-H19 (antibody, V domains shown) VH: EVQLQQSGAELVRSGASVKLSCTASGFNIKDYYMHWVKQRPEQGLEWIGWIDPESGDTEYAPKFQGRATMTADTSSNTAYMQLSSLTSEDTAVYYCYGHDYRVDCWGQGTSVTVSS VL: DVVMTQTPLSLPVSLGDQASISCRSSQSLVHSNGNTYLHWYLQKPGQSPKLLIYKVSNRFSGVPDRFSGSGSGTDFTLKISRVEAEDLGVYFCSQSTHIPWTFGGGTKLEIK | 456 | 39 | 24 |  |
| 4-J22 (antibody, V domains shown) VH: EVQLQQSGAELVRSGASVKLSCTASGFNIKDYYIHWVKQRPEQGLEWIGWIDPENADTEYAPKFQGKATMTPDTSSNTAYLQLSSLTSEDTAVYYCYAWDYSMDYWGQGTSVTVSS VL: DVVMTQTPLSLSVSLGDQASISCRSSQSLVHSNGNTYLHWYLQKPGQSPKLLIYKVSNRFSGVPDRFSGSGSGTDFILKISRVEAEDLGVYFCSQNTHVPYTFGGGTRLEIK |  | 7 | 57 |  |
| 10-H2 (antibody, V domains shown) VH: EVQLVESGGDLVKPGGSLKLSCAASGFTFSDYGMHWVRQGPEKGLEWVAYINSGSSTIYYADTVKGRFTISRDNAKNTLFLQMTSLRSEDTAMYYCARPGDYDNYAMDYWGQGTSVTVSS VL: DIVMTQSHKFLSTSVGDRVSITCKASQDVSVAVAWYQQKPGQSPKLLIYWAYTRHTGVPDRFTGSGSGTEYTLTISSVQAEDLALYYCQQHYNTPPWTFGGGTKLEIK |  | 2 | 16 |  |
| 4-C5 (antibody, V domains shown) VH: QVQLQQSGAELMKPGASVKISCKATGYTFSNYWIEWVKQRPGHGLEWIGEILPGSGSTNYNENFKGKATFTADTSSNTAYMQLSSLTSEDSAVYYCARRGAYGNFHYWGQGTTLTVSS VL: EIVLTQSPALMAASPGEKVTITCSVSSSISSSNLHWYQQKSETSPKPWIYGTSNLASGVPVRFSGSGSGTSYSLTISSMEAEDAATYYCQQWRSYPYTFGGGTKLEIK |  | −20 | 35 |  |
| 8-O17 (antibody, V domains shown) VH: QVQLKESGPGLVAPSQSLSITCTVSGFSLTNYGVHWVRQPPGKGLEWLVVIWNDGSATYNSALESRLSISKDNSKSQVFLKMNSLQTDDTAMYYCARHESSNPFAYWGQGTLVTVSA VL: DILLTQSPAILSVSPGERVSFSCRASQSIGTSIHWYQQRTNGSPRLLIKSASESIAGIPSRFSGSGSGTDFTLSINSVESEDIADYYCQQNNRWPYTFGGGTKLEIK | 91.2 | 26 | 41 |  |
